B1: HDV Ribozyme (parent)
chain: GGCCGGCAUGGUCCCAGCCUCCUCGCUGGCGCCGGCUGGGCAACAUUCCGAGGGGACCGUCCCCUCGGUAAUGGCGAAUGGGACCCA

Variants of: B1
Experiment: self-cleavage, relative activity (ratio to wild type); higher = more cleavage; co-transcriptional

Going from C41U C49U to C41U A43G, the self-cleavage falls from 0.749 to 0.356.

Going from C41U A43C to C41U A43U, the self-cleavage falls from 0.831 to 0.489.

Compared with A42U C66G, A42U C66A is higher in self-cleavage: 0.386 for the first, 0.511 for the second.

First: A42U C66U
Second: A42G G67C
The self-cleavage of the first is higher: 0.61 for the first, 0.365 for the second.

Compared with A42G U60G, A42G U60C is lower in self-cleavage: 0.639 for the first, 0.617 for the second.

Going from A42G U60A to A43C A45C, the self-cleavage rises from 0.302 to 0.415.

First: A43C A45G
Second: A42U A45C
The self-cleavage of the first is higher: 0.643 for the first, 0.361 for the second.

Going from A42U A45G to C41U C75U, the self-cleavage rises from 0.237 to 0.249.

First: A42U C62A
Second: A42U C62G
The self-cleavage of the first is higher: 0.618 for the first, 0.6 for the second.

Going from C41U C58G to C41U C58A, the self-cleavage rises from 0.889 to 0.962.

Going from A42C A87G to A42C A87C, the self-cleavage rises from 0.219 to 0.367.

Compared with A42G G80A, C41U G52A is higher in self-cleavage: 0.0997 for the first, 1.06 for the second.

Compared with A42C G52A, A42G G52A is higher in self-cleavage: 0.399 for the first, 0.483 for the second.

Compared with C41U G73U, A42U G68U is lower in self-cleavage: 0.511 for the first, 0.162 for the second.

Compared with A42U G68C, A42U G68A is higher in self-cleavage: 0.397 for the first, 0.407 for the second.

Compared with C41U, A42U U46G is lower in self-cleavage: 0.979 for the first, 0.287 for the second.

First: A42U U46C
Second: C41G G80C
The self-cleavage of the first is higher: 0.45 for the first, 0.164 for the second.

Going from C41G G80A to C41G C63G, the self-cleavage rises from 0.431 to 0.517.

Going from C41U U69A to C41U U69G, the self-cleavage falls from 1.08 to 0.946.

Going from C41G G76A to C41G G76U, the self-cleavage falls from 0.991 to 0.989.

Compared with C41G G76C, C41G C62G is lower in self-cleavage: 0.91 for the first, 0.252 for the second.

Going from A42U G52U to A42U G52C, the self-cleavage rises from 0.592 to 0.799.

Compared with A42U G52A, A42U A77C is lower in self-cleavage: 0.612 for the first, 0.0519 for the second.

First: A42U A43U
Second: A42U A43C
The self-cleavage of the first is higher: 0.604 for the first, 0.208 for the second.

Compared with C41U G50C, C41U G50A is higher in self-cleavage: 0.67 for the first, 1.01 for the second.

Going from C41U G50U to A42C C66G, the self-cleavage falls from 0.933 to 0.243.

Going from A42C C66U to C41G C86G, the self-cleavage rises from 0.489 to 0.914.

Going from C41G C86A to A42G G81A, the self-cleavage falls from 1.14 to 0.106.

Compared with A42G G81C, A42G G74C is higher in self-cleavage: 0.0386 for the first, 0.095 for the second.

Going from A42G G74U to A42U C85U, the self-cleavage rises from 0.0791 to 0.541.

First: C41G G55A
Second: C41G G55U
The self-cleavage of the first is higher: 0.911 for the first, 0.86 for the second.

Going from A42C U46G to A42C U46A, the self-cleavage falls from 0.166 to 0.107.

Compared with A42G A51U, A42G A51C is higher in self-cleavage: 0.464 for the first, 0.831 for the second.

First: A42G A77G
Second: A42C A71C
The self-cleavage of the first is lower: 0.208 for the first, 0.332 for the second.

Compared with A42C A71U, A42U G80U is lower in self-cleavage: 0.166 for the first, 0.138 for the second.

First: A42U G80C
Second: C41U U46C
The self-cleavage of the first is lower: 0.166 for the first, 0.734 for the second.

Compared with A42U C63G, A42U C63U is higher in self-cleavage: 0.504 for the first, 0.506 for the second.

Compared with C41U G54U, C41U G54C is lower in self-cleavage: 0.931 for the first, 0.63 for the second.

Going from A43C A51G to A43C A51C, the self-cleavage rises from 0.499 to 0.604.

Compared with C41U G55C, C41G C85A is lower in self-cleavage: 0.885 for the first, 0.617 for the second.

Compared with A42U U65C, A42G A43C is lower in self-cleavage: 0.657 for the first, 0.158 for the second.

Compared with A42G A43U, A42G A43G is lower in self-cleavage: 0.185 for the first, 0 for the second.
